For the assay, the target named is T1, 增强绿色荧光蛋白 (enhanced green fluorescent protein, EGFP) (Aequorea victoria (engineered mutant), UniProt P42212 1-238 = GFP, limits assumed).
T1 construct: also called EGFP蛋白
Nature of the assay: biolayer interferometry: nanobody coupled by EDC/s-NHS to AR2G probe, association 300 s, dissociation 120 s in PBS.

B1: 高亲和力增强绿色荧光蛋白纳米抗体 (anti-EGFP nanobody), clone 4-28 (VHH)
VHH: QVQLVESGGGLVQPGGSLRLSCAASGSRFSIHTMGWYRQAPGKQRELVATITWGGRQNYADSVKGRFTINRDNDKNTVDLQMDSLKPEDTAVYYCNVRPISNGPDYWGQGTQVTVSS
notes: Alpaca VHH selected by phage display; The purified protein was about 20 kD by SDS-PAGE; also called 抗EGFP纳米抗体; 编号4-28; not shown: Expressed from PET25b in E. coli Rosetta and purified on a nickel column
For B1, the Kd was determined as 0.0967 nM.

These data come from CN112010969A (UNIV NANCHANG, dated 2020).
